Consider three substances from PMC5823874.

pKd: −log10 of the molar value. Bounds are passed on as bounds.

Assay [1] addresses Calcium-independent phospholipase A2β, short variant (SH-iPLA2β, 752 amino acids), wild type (Chinese hamster (gene cloned from CHO cells)). Put plainly: AUC; sedimentation velocity, 20 °C, 35,000 rpm, absorbance at 280 nm; 25 mM HEPES 7.5, 500 mM NaCl, 10% glycerol; c(s) model in SEDFIT.
Assay [2] addresses FAM-labeled calmodulin T34C (UniProt P0DP23). The assay is described as follows: fluorescence polarisation; fluorescence anisotropy; 30 nM FAM-CaM with Ca2+, titrated with a twofold dilution series of iPLA2β; 25 mM HEPES 7.5, 150 mM NaCl, 10% glycerol; 15 min at 25 °C. (In general: Fluorescence polarisation rises when a labelled molecule tumbles more slowly, as on binding a larger partner.)

The target in assay [3] is Calcium-independent phospholipase A2β, short variant (SH-iPLA2β, 752 amino acids), wild type (Chinese hamster (gene cloned from CHO cells)).

As for “Calcium-independent phospholipase A2β, short variant (SH-iPLA2β, 752 amino acids), wild type (enzyme)”, the stoichiometry N (commonly the number of molecules, sites or subunits per partner or assembly) in assay [1] came to 2. In addition, in assay [2], the pKd (in general, −log10 of the Kd, conventionally taken in molar units) is 6.95.

As to “Calmodulin (CaM), unmodified (from UniProt P0DP23 1-149) (natural protein)”, the Ki of inhibition of iPLA2β enzymatic activity by CaM in the presence of Ca2+ (fluorogenic assay with Pyrene-PC liposomes) in assay [3] was 23 nM.

The substance iPLA2β W695E mutant (enzyme) showed a pKd in assay [2] of less than 5.85.
